Data as given in patent publication US20230406885A1, “CYCLIC PEPTIDES FOR TRAPPING INTERLEUKIN-1 BETA” (MERCK SHARP & DOHME LLC, priority 2022, published 2023).
*1 amine or outer side, *2 acyl side, *3 side chain or, on linkers, in order; H or OH if unused. [ ]: non-standard residue; d: D form. 3AzaPhe4AcPip = (S)-3-(6-(4-acetylpiperazin-1-yl)pyridin-3-yl)-2-aminopropanoic acid, CC(=O)N1CCN(c2ccc(C[C@H](N[*:1])C(=O)[*:2])cn2)CC1; Trp(4-Cl)(βS-Me) = C[C@@H](c1c[nH]c2cccc(Cl)c12)[C@H](N)C(=O)O; Ala(piperidin-4-yl) = O=C([C@H](CC1CCN([*:3])CC1)N[*:1])[*:2]; Pro(trans-4-NH2) = O=C([C@@H]1C[C@@H](N[*:3])CN1[*:1])[*:2]; Bip(4'-COOH) = N[C@@H](Cc1ccc(-c2ccc(C(=O)O)cc2)cc1)C(=O)O; Phe(3-CH2NH2) = O=C([C@H](Cc1cccc(CN[*:3])c1)N[*:1])[*:2]; 1Nal(3S-Me) = C[C@@H](c1cccc2ccccc12)[C@H](N)C(=O)O; Phe(4-COOH) = N[C@@H](Cc1ccc(C(=O)O)cc1)C(=O)O; h3Pal(5-CN) = N#Cc1cncc(CC[C@H](N)C(=O)O)c1; hTyr = N[C@@H](CCc1ccc(O)cc1)C(=O)O; 4Pal = N[C@@H](Cc1ccncc1)C(=O)O; dDab = NCC[C@@H](N)C(=O)O; Orn = NCCC[C@H](N)C(=O)O; dNMeA = CN[C@H](C)C(=O)O; Dap = NC[C@H](N)C(=O)O

B1: SEQ ID NO: 44 (peptide)
peptide: cyclo([Bip(4'-COOH)]W[Phe(4-COOH)]G[Pro(trans-4-NH2)][Trp(4-Cl)(βS-Me)]D[dNMeA]G[Bip(4'-COOH)]KL[dS][hTyr])
SMILES: CC(C)C[C@@H]1NC(=O)[C@H](CCCCN)NC(=O)[C@H](Cc2ccc(-c3ccc(C(=O)O)cc3)cc2)NC(=O)CNC(=O)[C@@H](C)N(C)C(=O)[C@H](CC(=O)O)NC(=O)[C@H]([C@@H](C)c2c[nH]c3cccc(Cl)c23)NC(=O)[C@@H]2C[C@@H](N)CN2C(=O)CNC(=O)[C@H](Cc2ccc(C(=O)O)cc2)NC(=O)[C@H](Cc2c[nH]c3ccccc23)NC(=O)[C@H](Cc2ccc(-c3ccc(C(=O)O)cc3)cc2)NC(=O)[C@H](CCc2ccc(O)cc2)NC(=O)[C@@H](CO)NC1=O
B2: SEQ ID NO: 47 (peptide)
peptide: cyclo([Bip(4'-COOH)]W[Phe(4-COOH)]G[Pro(trans-4-NH2)][Trp(4-Cl)(βS-Me)]D[dNMeA]G[Bip(4'-COOH)]KS[dS][hTyr])
SMILES: C[C@@H]1C(=O)NCC(=O)N[C@@H](Cc2ccc(-c3ccc(C(=O)O)cc3)cc2)C(=O)N[C@@H](CCCCN)C(=O)N[C@@H](CO)C(=O)N[C@H](CO)C(=O)N[C@@H](CCc2ccc(O)cc2)C(=O)N[C@@H](Cc2ccc(-c3ccc(C(=O)O)cc3)cc2)C(=O)N[C@@H](Cc2c[nH]c3ccccc23)C(=O)N[C@@H](Cc2ccc(C(=O)O)cc2)C(=O)NCC(=O)N2C[C@H](N)C[C@H]2C(=O)N[C@@H]([C@@H](C)c2c[nH]c3cccc(Cl)c23)C(=O)N[C@@H](CC(=O)O)C(=O)N1C
B3: SEQ ID NO: 49 (peptide)
peptide: cyclo([Bip(4'-COOH)]W[Phe(4-COOH)]G[Pro(trans-4-NH2)][Trp(4-Cl)(βS-Me)]D[dNMeA]G[Bip(4'-COOH)][Orn]S[dA][hTyr])
SMILES: C[C@@H]1C(=O)NCC(=O)N[C@@H](Cc2ccc(-c3ccc(C(=O)O)cc3)cc2)C(=O)N[C@@H](CCCN)C(=O)N[C@@H](CO)C(=O)N[C@H](C)C(=O)N[C@@H](CCc2ccc(O)cc2)C(=O)N[C@@H](Cc2ccc(-c3ccc(C(=O)O)cc3)cc2)C(=O)N[C@@H](Cc2c[nH]c3ccccc23)C(=O)N[C@@H](Cc2ccc(C(=O)O)cc2)C(=O)NCC(=O)N2C[C@H](N)C[C@H]2C(=O)N[C@@H]([C@@H](C)c2c[nH]c3cccc(Cl)c23)C(=O)N[C@@H](CC(=O)O)C(=O)N1C
B4: SEQ ID NO: 42 (peptide)
peptide: cyclo([Bip(4'-COOH)]W[Phe(4-COOH)]G[Pro(trans-4-NH2)][Trp(4-Cl)(βS-Me)]D[dNMeA]G[Bip(4'-COOH)]KL[dA][hTyr])
SMILES: CC(C)C[C@@H]1NC(=O)[C@H](CCCCN)NC(=O)[C@H](Cc2ccc(-c3ccc(C(=O)O)cc3)cc2)NC(=O)CNC(=O)[C@@H](C)N(C)C(=O)[C@H](CC(=O)O)NC(=O)[C@H]([C@@H](C)c2c[nH]c3cccc(Cl)c23)NC(=O)[C@@H]2C[C@@H](N)CN2C(=O)CNC(=O)[C@H](Cc2ccc(C(=O)O)cc2)NC(=O)[C@H](Cc2c[nH]c3ccccc23)NC(=O)[C@H](Cc2ccc(-c3ccc(C(=O)O)cc3)cc2)NC(=O)[C@H](CCc2ccc(O)cc2)NC(=O)[C@@H](C)NC1=O
B5: SEQ ID NO: 48 (peptide)
peptide: cyclo([Bip(4'-COOH)]W[Phe(4-COOH)]G[Pro(trans-4-NH2)][Trp(4-Cl)(βS-Me)]D[dNMeA]G[Bip(4'-COOH)][Phe(3-CH2NH2)]S[dA][hTyr])
SMILES: C[C@@H]1C(=O)NCC(=O)N[C@@H](Cc2ccc(-c3ccc(C(=O)O)cc3)cc2)C(=O)N[C@@H](Cc2cccc(CN)c2)C(=O)N[C@@H](CO)C(=O)N[C@H](C)C(=O)N[C@@H](CCc2ccc(O)cc2)C(=O)N[C@@H](Cc2ccc(-c3ccc(C(=O)O)cc3)cc2)C(=O)N[C@@H](Cc2c[nH]c3ccccc23)C(=O)N[C@@H](Cc2ccc(C(=O)O)cc2)C(=O)NCC(=O)N2C[C@H](N)C[C@H]2C(=O)N[C@@H]([C@@H](C)c2c[nH]c3cccc(Cl)c23)C(=O)N[C@@H](CC(=O)O)C(=O)N1C
B6: SEQ ID NO: 46 (peptide)
peptide: cyclo([Bip(4'-COOH)]W[Phe(4-COOH)]G[Pro(trans-4-NH2)][Trp(4-Cl)(βS-Me)]D[dNMeA]G[Bip(4'-COOH)]KS[dDab][hTyr])
SMILES: C[C@@H]1C(=O)NCC(=O)N[C@@H](Cc2ccc(-c3ccc(C(=O)O)cc3)cc2)C(=O)N[C@@H](CCCCN)C(=O)N[C@@H](CO)C(=O)N[C@H](CCN)C(=O)N[C@@H](CCc2ccc(O)cc2)C(=O)N[C@@H](Cc2ccc(-c3ccc(C(=O)O)cc3)cc2)C(=O)N[C@@H](Cc2c[nH]c3ccccc23)C(=O)N[C@@H](Cc2ccc(C(=O)O)cc2)C(=O)NCC(=O)N2C[C@H](N)C[C@H]2C(=O)N[C@@H]([C@@H](C)c2c[nH]c3cccc(Cl)c23)C(=O)N[C@@H](CC(=O)O)C(=O)N1C
B7: SEQ ID NO: 39 (peptide)
peptide: cyclo([Bip(4'-COOH)]W[Phe(4-COOH)]G[Pro(trans-4-NH2)][Trp(4-Cl)(βS-Me)]D[dNMeA]G[Bip(4'-COOH)][4Pal]S[dA][hTyr])
SMILES: C[C@@H]1C(=O)NCC(=O)N[C@@H](Cc2ccc(-c3ccc(C(=O)O)cc3)cc2)C(=O)N[C@@H](Cc2ccncc2)C(=O)N[C@@H](CO)C(=O)N[C@H](C)C(=O)N[C@@H](CCc2ccc(O)cc2)C(=O)N[C@@H](Cc2ccc(-c3ccc(C(=O)O)cc3)cc2)C(=O)N[C@@H](Cc2c[nH]c3ccccc23)C(=O)N[C@@H](Cc2ccc(C(=O)O)cc2)C(=O)NCC(=O)N2C[C@H](N)C[C@H]2C(=O)N[C@@H]([C@@H](C)c2c[nH]c3cccc(Cl)c23)C(=O)N[C@@H](CC(=O)O)C(=O)N1C
B8: SEQ ID NO: 45 (peptide)
peptide: cyclo([Bip(4'-COOH)]W[Phe(4-COOH)]G[Pro(trans-4-NH2)][Trp(4-Cl)(βS-Me)]D[dNMeA]G[Bip(4'-COOH)]KS[dA][hTyr])
SMILES: C[C@@H]1C(=O)NCC(=O)N[C@@H](Cc2ccc(-c3ccc(C(=O)O)cc3)cc2)C(=O)N[C@@H](CCCCN)C(=O)N[C@@H](CO)C(=O)N[C@H](C)C(=O)N[C@@H](CCc2ccc(O)cc2)C(=O)N[C@@H](Cc2ccc(-c3ccc(C(=O)O)cc3)cc2)C(=O)N[C@@H](Cc2c[nH]c3ccccc23)C(=O)N[C@@H](Cc2ccc(C(=O)O)cc2)C(=O)NCC(=O)N2C[C@H](N)C[C@H]2C(=O)N[C@@H]([C@@H](C)c2c[nH]c3cccc(Cl)c23)C(=O)N[C@@H](CC(=O)O)C(=O)N1C
B9: SEQ ID NO: 43 (peptide)
peptide: cyclo([Bip(4'-COOH)]W[Phe(4-COOH)]G[Pro(trans-4-NH2)][Trp(4-Cl)(βS-Me)]D[dNMeA]G[Bip(4'-COOH)]KL[dDab][hTyr])
SMILES: CC(C)C[C@@H]1NC(=O)[C@H](CCCCN)NC(=O)[C@H](Cc2ccc(-c3ccc(C(=O)O)cc3)cc2)NC(=O)CNC(=O)[C@@H](C)N(C)C(=O)[C@H](CC(=O)O)NC(=O)[C@H]([C@@H](C)c2c[nH]c3cccc(Cl)c23)NC(=O)[C@@H]2C[C@@H](N)CN2C(=O)CNC(=O)[C@H](Cc2ccc(C(=O)O)cc2)NC(=O)[C@H](Cc2c[nH]c3ccccc23)NC(=O)[C@H](Cc2ccc(-c3ccc(C(=O)O)cc3)cc2)NC(=O)[C@H](CCc2ccc(O)cc2)NC(=O)[C@@H](CCN)NC1=O
B10: SEQ ID NO: 4 (peptide)
peptide: cyclo([3AzaPhe4AcPip]W[Phe(4-COOH)]G[Pro(trans-4-NH2)][1Nal(3S-Me)]D[dNMeA]G[Bip(4'-COOH)]W[Dap][dA][h3Pal(5-CN)])
SMILES: CC(=O)N1CCN(c2ccc(C[C@@H]3NC(=O)[C@H](CCc4cncc(C#N)c4)NC(=O)[C@@H](C)NC(=O)[C@H](CN)NC(=O)[C@H](Cc4c[nH]c5ccccc45)NC(=O)[C@H](Cc4ccc(-c5ccc(C(=O)O)cc5)cc4)NC(=O)CNC(=O)[C@@H](C)N(C)C(=O)[C@H](CC(=O)O)NC(=O)[C@H]([C@@H](C)c4cccc5ccccc45)NC(=O)[C@@H]4C[C@@H](N)CN4C(=O)CNC(=O)[C@H](Cc4ccc(C(=O)O)cc4)NC(=O)[C@H](Cc4c[nH]c5ccccc45)NC3=O)cn2)CC1
B11: SEQ ID NO: 41 (peptide)
peptide: cyclo([Bip(4'-COOH)]W[Phe(4-COOH)]G[Pro(trans-4-NH2)][Trp(4-Cl)(βS-Me)]D[dNMeA]G[Bip(4'-COOH)][Dap]S[dA][hTyr])
SMILES: C[C@@H]1C(=O)NCC(=O)N[C@@H](Cc2ccc(-c3ccc(C(=O)O)cc3)cc2)C(=O)N[C@@H](CN)C(=O)N[C@@H](CO)C(=O)N[C@H](C)C(=O)N[C@@H](CCc2ccc(O)cc2)C(=O)N[C@@H](Cc2ccc(-c3ccc(C(=O)O)cc3)cc2)C(=O)N[C@@H](Cc2c[nH]c3ccccc23)C(=O)N[C@@H](Cc2ccc(C(=O)O)cc2)C(=O)NCC(=O)N2C[C@H](N)C[C@H]2C(=O)N[C@@H]([C@@H](C)c2c[nH]c3cccc(Cl)c23)C(=O)N[C@@H](CC(=O)O)C(=O)N1C
B12: SEQ ID NO: 40 (peptide)
peptide: cyclo([Bip(4'-COOH)]W[Phe(4-COOH)]G[Pro(trans-4-NH2)][Trp(4-Cl)(βS-Me)]D[dNMeA]G[Bip(4'-COOH)][Ala(piperidin-4-yl)]S[dA][hTyr])
SMILES: C[C@@H]1C(=O)NCC(=O)N[C@@H](Cc2ccc(-c3ccc(C(=O)O)cc3)cc2)C(=O)N[C@@H](CC2CCNCC2)C(=O)N[C@@H](CO)C(=O)N[C@H](C)C(=O)N[C@@H](CCc2ccc(O)cc2)C(=O)N[C@@H](Cc2ccc(-c3ccc(C(=O)O)cc3)cc2)C(=O)N[C@@H](Cc2c[nH]c3ccccc23)C(=O)N[C@@H](Cc2ccc(C(=O)O)cc2)C(=O)NCC(=O)N2C[C@H](N)C[C@H]2C(=O)N[C@@H]([C@@H](C)c2c[nH]c3cccc(Cl)c23)C(=O)N[C@@H](CC(=O)O)C(=O)N1C

Each binder was assayed against Recombinant human IL-1β (BioLegend 579404) (human, UniProt P01584 117-269) (assay: cell-based or functional assay).

MRC5 IC50 [nM] | Binder
0.132 | B1
0.123 | B2
0.402 | B3
0.627 | B4
0.041 | B5
0.134 | B6
0.232 | B7
0.174 | B8
0.244 | B9
0.0438 | B10
0.469 | B11
0.508 | B12
